± gives the half width of the 95% confidence interval.
test: folding stability dG unfold from chymotrypsin proteolysis; higher = more stable
Method in brief: (§1)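 Only designs with AlphaFold2 dimer inter-PAE above 15 were retained; each was a mini-protein under 80 residues with no cysteine, in a PA-tagged cDNA display construct. After digestion with trypsin and chymotrypsin and sequencing, K50 was inferred by Bayesian fitting of counts, and unfolding free energy was derived per protease or combined against a sequence-predicted unfolded-state K50 and a shared folded-state K50.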

| Sequence | folding stability dG unfold [kcal/mol] |
| --- | --- |
| SAGGSAGGSAGGSKPNNFKNIPKPVFKFKITTTEWKKNKDGTWTPVSTSTAEVTVWSNTSAGGSAGGSAGGS [r4_288_TrMRF] | 4.29 ± 0.1 |
| SMVVPVLIEKPYTSPEELEEFKKEAEELVKKLAEETGYPIKVLETKYTTDPNTNVVSLTLVVEIVSPELNSA [r9_105_JUSTAS] | 2.6 ± 0.14 |
| SAGGKVEVELEDGKLRVKVFDKNGKLVEEVEVELKPVTIVIPGLSEEELQELKEKFPGAKITILEGQKSAGG [r13_235_TrROS_Hall] | 2.87 ± 0.08 |
| SAGGSAGGSAMLRIKIYYKKNGEEYEIEVEGSLEEALKEAAKKLGLSEDEIKKIEIEELPESAGGSAGGSAG [r3_79_TrROS_Hall] | 3.73 ± 0.086 |
| SAGGSAGGSAGGLEIELPNARIRIEELEGEPRRIRVRVEFFPPDGGRLSAEAEFDILPDLSAGGSAGGSAGG [r17_184_TrMRF] | 2.5 ± 0.08 |
| SAVVLKEPGPVTTVVTTDPATGVTTTVTTDPSAGTTTVTTTDPASAAVTTTTYTTLPDGTPVPTTTTTPASA [r9_1073_JUSTAS] | 0.86 ± 0.032 |
| SAGGSAGGPLYRVLILLKKPNGEPLLLPLVAEDPEKALELAERLRKEYEEKGYELVAVEIYEFPSAGGSAGG [r6_869_TrMRF] | 5.26 ± 0.13 |
| SAKKENSVPVTIEIELEFDSIEKAKKAIEKLAAEIEKETGAKIEIKVEIEEKENNYIVKVELTIYLPKESAG [r14_626_TrMRF] | 1.55 ± 0.051 |
| SAMKIIIKLPKNVKPIKAEELEKIPGIKVVKIEIYKGEDGVYYLLIEIEESIPPEKLKELEEKIREIAGSAG [r14_421_TrMRF] | 5.41 ± 0.15 |
| SAGMTVKVKVEVKTKYFDKNGKLVKEEKKTVEVEVEVKIVIELKPEDLEKAKELAEKLGIEITEEELKSAGG [r19_315_TrROS_Hall] | 1.86 ± 0.17 |
| SAGKKTIIIKIPPNMTVEELKKALKNLKPNEKVTITVNGKKYTITVKDGKIKITFPENVKNMILIIEVKSAG [r5_373_TrROS_Hall] | 2.54 ± 0.057 |
| SAGGSAGGSAGTIVITQSPDGTWRAYYEDGTAEEFDSIDDLKKALEEHYPDAKTVIFKPASAGGSAGGSAGG [r11_806_TrMRF] | 2.99 ± 0.17 |
| SAGGSAGGSAGKEIIKNIPKGVKVLKIEPLPGKSGTYVKIEVEFPDPNGVKHRLTFIAPESAGGSAGGSAGG [r17_140_TrMRF] | 1.34 ± 0.14 |
| SMKPGDKLLIRIRLPPVKVEREYFDKDGKLVKKETKEVKEVELVIELSPEELEKLRELLKELGFEVEILPSA [r9_167_TrROS_Hall] | 2.4 ± 0.055 |
| SAGGSAGGSSGTVTLRLRFRVVDLDPATGEASEHEFELTLTVPIELPAAAPPATPTYGLTLPGSAGGSAGGS [r12_140_TrMRF] | 2.79 ± 0.074 |
| SASPALELAKEIAEKIEPLFPDISPVEVTVTPRGSTALGTIKFKRPDGKELVAKMIVSAGGDPVEIILLSAG [r14_719_JUSTAS] | 1.26 ± 0.25 |
| SAGGDWMLVIEIEIEGQPTPDGQIKVEISIEIELVRPPPPPITPWDRMAEEARDKNPNIPPDDPEAMTSAGG [r13_136_TrROS] | 1.7 ± 0.095 |
| SAGGMKVTTKPLPSDSEVVDIPGGVTMKIDPKTGVGTITLPDGKTLKMTITKDPNKNTTTITITPESSAGGS [r8_186_JUSTAS] | 1.14 ± 0.2 |
| SAGKMYLIVIKVDGKEYVIVIPEEEMSEEEIRKLISEELGISEEEVEIVEIVPVEPGESVEEALKKALESAG [r5_900_TrROS_Hall] | 4.23 ± 0.074 |
| SAGSKEFPFESEFEFEGYRVKVEVKVRVEFDENGKPTKNFKPEIKIEIKPLPPKPVITAEEALKLDPEKSAG [r14_442_TrMRF] | 1.93 ± 0.14 |
| SAGGGPPSSMVKKTYTVTGTDPDALAAAVRAAIAAAHPDVEITEVTVSRDPSSDRYTVTVDVLSSVASAGGS [r8_120_JUSTAS] | 2.638 ± 0.017 |

test: folding stability dG unfold (combined trypsin and chymotrypsin); higher = more stable
Method in brief: as §1

| Sequence | folding stability dG unfold [kcal/mol] |
| --- | --- |
| SAMSVKTYSSTSVDPKTGKTYTTTTTVTPKPEPPWLVTTTTYLVDPATGTTTLLSTTTTTLDPNDPTLLSAG [r14_939_JUSTAS] | 2.45 ± 0.084 |
| SAGGSAGGMLLSSEEELEEELKRVREEGIGEVEVQVVDEKGNIHTLPTFVENPGPEPLPNEKLLSAGGSAGG [r6_258_JUSTAS] | 0.628 ± 0.13 |
| SAGGDTVTTTETFPEKPILTVTTTSFSPSGTTTTTTTTYEVENGKIVSKLSTTTTTTAVAPAPPGTASAGGS [r16_682_JUSTAS] | 0.941 ± 0.036 |
| SAGGMKIKTKSGKELTLKKIKLKYKNKEYEIENLKIKAIKYDPKKKIVHIEVTHPNGKKYTFDLKIKSAGGS [r8_215_TrMRF] | 2.8 ± 0.21 |
| SAGGSAGGSAKVVVDEVEVEVFKNEDGEEVLRVRFKKTGEEVEIPLEDLEKLELPPGAVVEPSAGGSAGGSA [r18_288_TrROS_Hall] | 1.41 ± 0.07 |
| SAGGSTVTVTVRRRVRVEVNGELREFEVEVTVTVRLPPPPPVIELPPEQVTRIEWDEETQELRVEVDSAGGS [r8_28_TrROS_Hall] | 3.28 ± 0.21 |
| SAGMTAEELAEELAKELEVEVTLENGEKRRVRVEVKVERLPDGTLLLTAKVENEETGETFEIKIEIKLESAG [r5_397_TrROS_Hall] | 3.67 ± 0.33 |
| SAGGSAGGMVKVSSDPATGKVYVTYPGADPEAVAEKVKKEYGAKKIKVEKDPNKDVTTITITVESAGGSAGG [r6_662_JUSTAS] | -0.0511 ± 0.19 |
| SAGGSAGGGIDLSNPEDIEEALKKSGIVGVFKVKIIPLPGGKWKKIIEPVKLLPKEELEKAGLISAGGSAGG [r6_402_TrMRF] | 0.637 ± 0.095 |
| SAGGSAFKGMPPEQVKRVIEIDHPNGKDIYIVRYKGPGHMMIFPPKEGKPIYIPMPLDEIKEFLLSSAGGSA [r15_810_TrROS] | 0.548 ± 0.094 |
